Laboratory results from PMC9982067.

Target: Lys38 (UniProt position 38, …)
Test: kinetics
Conditions: 19°C; 50 mM/50 mM TRIS/HEPES (pH 8.3-6.3), TRIS/MES (pH 6.6, 5.8), TRIS/citric acid (pH 5.3-2.8); Transporter in the native yeast plasma membrane, turning over with 1 mM L-lactate. The authors link the 7.43 inflection to Lys 38 in the substrate-unbound state.

B1: Monocarboxylate transporter 1 (MCT1) (Homo sapiens) (protein)
chain: MPPAVGGPVGYTPPDGGWGWAVVIGAFISIGFSYAFPKSITVFFKEIEGIFHATTSEVSWISSIMLAVMYGGGPISSILVNKYGSRIVMIVGGCLSGCGLIAASFCNTVQQLYVCIGVIGGLGLAFNLNPALTMIGKYFYKRRPLANGLAMAGSPVFLCTLAPLNQVFFGIFGWRGSFLILGGLLLNCCVAGALMRPIGPKPTKAGKDKSKASLEKAGKSGVKKDLHDANTDLIGRHPKQEKRSVFQTINQFLDLTLFTHRGFLLYLSGNVIMFFGLFAPLVFLSSYGKSQHYSSEKSAFLLSILAFVDMVARPSMGLVANTKPIRPRIQYFFAASVVANGVCHMLAPLSTTYVGFCVYAGFFGFAFGWLSSVLFETLMDLVGPQRFSSAVGLVTIVECCPVLLGPPLLGRLNDMYGDYKYTYWACGVVLIISGIYLFIGMGINYRLLAKEQKANEQKKESKEEETSIDVAGKPNEVTKAAESPDQKDTDGGPKEEESPV
B1 gave a pKa of 7.43.
